The values that follow come from US20180208648A1 (SCHOLAR ROCK, published 2018).

One experiment concerns the target T1, human mature GDF11 (human, UniProt O95390 299-407, biotinylated, site not stated).
T1 construct: Growth factor domain; also called GDF11 mature growth factor
T1 sequence: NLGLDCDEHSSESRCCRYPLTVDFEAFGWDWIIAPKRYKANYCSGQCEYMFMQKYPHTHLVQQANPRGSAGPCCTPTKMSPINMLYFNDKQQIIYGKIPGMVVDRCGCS
Briefly: ELISA, biotinylated antigen on neutravidin plate. The text has this:
(§1) Candidate clones were converted to human IgG1 format. Full-length IgG antibodies were further characterized by ELISA for binding to the human and murine pro- and latent-forms of myostatin and GDF11. Antibodies were also screened for binding to the Myostatin prodomain (SEQ ID NO: 85), proTGFDβ1 (human and murine), the mature growth factor of Myostatin (SEQ ID NO: 89), the GDF11 mature growth factor (SEQ ID NO: 90), and proActivin A (SEQ ID NO: 84). Chimeric constructs which swapped portions of the prodomains of Myostatin and GDF11 were designed and produced. For example proGDF11 arm8 (SEQ ID NO: 112) refers to GDF11 having the GDF8 arm domain, and prodomain GDF11 arm8 (SEQ ID NO: 114) refers to the GDF11 prodomain having the GDF8 arm domain. These chimeric proteins were assayed for interaction with screening antibodies by ELISA and allowed for the assessment of binding of antibodies to the ARM or straight jacket portions of the GDF11 prodomain complex. Antibodies were selected based on their cross-reactivity with pro- and latent human and murine GDF11, with no interactions with GDF8, Activin, or TGFβ proteins. Activin A is a homodimer of inhibin-beta A subunits. For example, Inhibin-beta A can heterodimerize with other proteins to produce different Activin proteins.
(§2) Enzyme-linked immunosorbent assay (ELISA) analysis is carried out to assess antibody binding. 96-well ELISA assay plates are coated with neutravidin, a deglycosylated version of streptavidin with a more neutral pH. Target proteins are expressed with or without histidine (His) tags and subjected to biotinylation. Biotinylated target proteins are incubated with neutravidin-coated ELISA assay plates for two hours at room temperature and unbound proteins are removed by washing three times with wash buffer (either 25 mM Tris, 150 mM NaCl, 0.05% TWEEN®-20, or 20 mM Hepes pH 7.5, 500 mM NaCl, 0.05% TWEEN®-20). Primary antibodies being tested are added to each well and allowed to incubate at room temperature for 1 hour or more. Unbound antibody is then removed by washing three times with wash buffer. Secondary antibodies capable of binding to primary antibodies being tested and conjugated with detectable labels are then incubated in each well for 30 minutes at room temperature. Unbound secondary antibodies are removed by washing three times with wash buffer.
A general note: In an ELISA, binding on a coated surface is turned into a signal by an enzyme label.

Experiment [1] deals with T2, human proGDF11 (human, UniProt O95390 25-407, biotinylated (NHS-PEG4-Biotin), site not stated).
T2 construct: Dimeric complex; also called hu proGDF11; GDF11 prodomain complex
T2 sequence: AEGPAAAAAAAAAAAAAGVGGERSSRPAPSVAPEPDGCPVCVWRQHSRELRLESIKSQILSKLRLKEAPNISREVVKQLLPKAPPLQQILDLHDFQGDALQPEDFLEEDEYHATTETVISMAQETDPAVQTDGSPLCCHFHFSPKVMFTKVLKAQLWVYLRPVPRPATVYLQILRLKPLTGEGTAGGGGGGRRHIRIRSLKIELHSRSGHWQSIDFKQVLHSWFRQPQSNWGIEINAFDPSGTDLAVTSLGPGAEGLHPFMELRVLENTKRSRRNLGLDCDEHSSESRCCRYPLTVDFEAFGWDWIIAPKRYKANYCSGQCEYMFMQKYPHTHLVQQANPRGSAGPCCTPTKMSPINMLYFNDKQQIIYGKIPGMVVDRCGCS
Briefly: BLI (ForteBio Octet).

Experiment [2] concerns the target T2, human proGDF11. Briefly: cell-based or functional assay.
Experiment [3] deals with T3, murine proGDF11 (mouse, UniProt Q9Z1W4 25-405, biotinylated, site not stated).
T3 sequence: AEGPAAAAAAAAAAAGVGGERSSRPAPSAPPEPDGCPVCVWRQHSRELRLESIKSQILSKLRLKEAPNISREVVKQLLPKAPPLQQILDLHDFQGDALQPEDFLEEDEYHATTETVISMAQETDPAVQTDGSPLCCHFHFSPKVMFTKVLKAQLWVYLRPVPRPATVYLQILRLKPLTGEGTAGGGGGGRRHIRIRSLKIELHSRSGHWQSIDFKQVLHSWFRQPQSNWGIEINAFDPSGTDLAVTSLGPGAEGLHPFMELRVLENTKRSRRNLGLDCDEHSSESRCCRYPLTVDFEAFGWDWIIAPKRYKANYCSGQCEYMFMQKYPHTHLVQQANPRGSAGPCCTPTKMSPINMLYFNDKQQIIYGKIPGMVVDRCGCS
The experiment in a line: cell-based or functional assay.

In experiment [4] the target is T4, human prodomain GDF11 ARM8 (human, biotinylated, site not stated).
T4 construct: GDF11 prodomain having the GDF8 arm domain; also called human GDF11 ARM8 prodomain
T4 chain: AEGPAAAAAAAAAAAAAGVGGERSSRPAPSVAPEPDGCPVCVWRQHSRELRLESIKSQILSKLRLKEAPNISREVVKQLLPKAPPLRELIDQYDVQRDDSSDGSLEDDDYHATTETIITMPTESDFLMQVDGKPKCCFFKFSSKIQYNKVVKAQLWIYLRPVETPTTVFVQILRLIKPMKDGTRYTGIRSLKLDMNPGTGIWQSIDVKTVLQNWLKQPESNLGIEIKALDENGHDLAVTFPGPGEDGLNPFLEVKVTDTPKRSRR
The experiment in a line: ELISA, biotinylated antigen on neutravidin plate.
From the text: as §1, §2

The target of the next experiment is T5, human proGDF8 (human, UniProt O14793 24-375, biotinylated, site not stated).
T5 construct: also called hu proGDF8; human proMyostatin
T5 sequence: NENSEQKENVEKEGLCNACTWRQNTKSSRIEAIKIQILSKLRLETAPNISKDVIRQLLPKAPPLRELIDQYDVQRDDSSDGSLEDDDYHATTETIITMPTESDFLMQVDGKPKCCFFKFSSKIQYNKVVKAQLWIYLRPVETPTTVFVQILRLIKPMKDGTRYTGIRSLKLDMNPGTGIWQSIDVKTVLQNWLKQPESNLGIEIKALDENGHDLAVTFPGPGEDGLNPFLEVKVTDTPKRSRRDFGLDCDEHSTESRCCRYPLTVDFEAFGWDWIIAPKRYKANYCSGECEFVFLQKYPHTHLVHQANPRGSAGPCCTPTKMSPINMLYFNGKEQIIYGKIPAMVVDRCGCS
Briefly: ELISA, biotinylated antigen on neutravidin plate.
From the text: as §1, §2

For another experiment, the target named is T6, human proGDF11 ARM8 (human, biotinylated, site not stated).
T6 construct: GDF11 having the GDF8 arm domain
T6 chain: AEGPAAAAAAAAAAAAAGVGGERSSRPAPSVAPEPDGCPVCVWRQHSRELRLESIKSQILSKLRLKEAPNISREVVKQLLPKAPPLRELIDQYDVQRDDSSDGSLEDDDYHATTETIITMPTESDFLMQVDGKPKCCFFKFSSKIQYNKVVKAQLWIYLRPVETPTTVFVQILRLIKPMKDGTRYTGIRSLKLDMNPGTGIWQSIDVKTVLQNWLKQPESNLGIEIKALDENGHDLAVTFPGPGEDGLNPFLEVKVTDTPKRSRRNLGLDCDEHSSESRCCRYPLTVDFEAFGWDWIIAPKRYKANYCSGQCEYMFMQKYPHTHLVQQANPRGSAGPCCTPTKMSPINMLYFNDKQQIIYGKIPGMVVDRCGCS
The experiment in a line: ELISA, biotinylated antigen on neutravidin plate.
From the text: as §1, §2

Experiment [5] addresses T3, murine proGDF11. The experiment in a line: BLI (ForteBio Octet). (In general: In BLI a coated tip is dipped into the sample, and binding shifts an interference pattern.)
Experiment [6] has as its target T2, human proGDF11. Briefly: cell-based or functional assay. The source holds these as a separate data set.
Experiment [7] concerns the target T2, human proGDF11. The experiment in a line: cell-based or functional assay. This is another data set of the same source.
The target in a further experiment is T7, human proActivin A (human, UniProt P08476 21-426, biotinylated (immobilized on streptavidin biosensors), site not stated).
T7 construct: also called human Activin A; Inhibin-beta A pro-protein
T7 sequence: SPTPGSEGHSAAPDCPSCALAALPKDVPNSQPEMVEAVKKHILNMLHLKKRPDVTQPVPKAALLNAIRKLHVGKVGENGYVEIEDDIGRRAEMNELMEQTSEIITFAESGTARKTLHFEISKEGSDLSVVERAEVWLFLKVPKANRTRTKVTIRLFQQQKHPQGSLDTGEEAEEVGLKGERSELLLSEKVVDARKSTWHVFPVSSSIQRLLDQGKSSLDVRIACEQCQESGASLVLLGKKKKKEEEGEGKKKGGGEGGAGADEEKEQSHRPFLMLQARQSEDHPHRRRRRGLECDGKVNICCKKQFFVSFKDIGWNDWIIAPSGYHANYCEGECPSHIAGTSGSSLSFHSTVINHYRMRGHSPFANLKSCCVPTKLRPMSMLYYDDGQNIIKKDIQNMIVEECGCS
The experiment in a line: BLI (ForteBio Octet QKe), antigen on streptavidin biosensor, antibody in solution.

Another experiment concerns the target T8, human latent GDF11 (human, UniProt O95390 25-407, biotinylated, site not stated).
T8 construct: also called hu latent GDF11
T8 sequence: T2 sequence
The experiment in a line: BLI (ForteBio Octet).

A value given as a limit tells only on which side of the number the result lay.

B1: GDF11 Inh-7 (antibody, V domains shown)
VH: EVQLVQSGGGLVQPGGSLRLSCAASGFTFSSYSMNWVRQAPGKGLEWVSYISSSSSTIYYADSVKGRFTISRDNAKNSLYLQMNSLRAEDTAVYYCARDGIYYDSSGYYDLFDYWGQGTLVTVSS
VL: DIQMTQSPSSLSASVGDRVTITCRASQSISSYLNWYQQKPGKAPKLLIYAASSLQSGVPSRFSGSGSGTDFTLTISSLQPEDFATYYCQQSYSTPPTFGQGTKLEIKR
notes: also called Clone GDF11 Inh-7
By Kd is commonly meant the free concentration of one partner at which half of the binding sites on the other are occupied at equilibrium, for simple one-to-one binding. Higher therefore signals a looser complex. For B1, the binding result with human mature GDF11 is reported as “no binding”. This molecule came in with a Kd with human proGDF11 [1] of 2.12 nM. The “Human proGDF11 % Inhibition (proGDF11 activation assay, CAGA luciferase reporter in 293T cells)” value (“Human proGDF11 % Inhibition” below) with human proGDF11 [2] stood at 74%. The “Murine proGDF11 % inhibition (proGDF11 activation assay, CAGA luciferase reporter in 293T cells)” value (“Murine proGDF11 % inhibition” for short) in the experiment with murine proGDF11 [3] was 53%.

B2: GDF11 Inh-3 (antibody, V domains shown)
VH: QVQLVQSGGGVVQPGRSLRLSCAASGFTFSSYAMHWVRQAPGKGLEWVAVISYDGSNEYYADSVKGRFTISRDNSKNTLYLQMNSLRAEDTAVYYCAKDFWSGYPQYNWFDPWGQGTLVTVSS
VL: EIVMTQSPATLSLSAGERATLSCRASQSVSNYLAWYQQKPGQAPRLLIYDASNRATGIPARFSGSGSGTDFTLTISSLEPEDFAVYYCQQYGSAPLTFGGGTNVEIKR
notes: also called Clone GDF11 Inh-3
On to B2, for which the binding result (in [4]; in the experiment with human proGDF8; in the experiment with human mature GDF11; in the experiment with human proGDF11 ARM8) was “no binding” in each case. The equilibrium dissociation constant (Kd) in the experiment with human proGDF11 [1] is 0.71 nM; with murine proGDF11 [5] it was 0.937 nM. For the same molecule, the “Human proGDF11 % Inhibition” value in the experiment with human proGDF11 [2] came out at 87%. For the same molecule, the “Murine proGDF11 % inhibition” value with murine proGDF11 [3] is 88%.

B3: GDF11 Inh-1 (antibody, V domains shown)
VH: EVQLLESRGGLVQPGRSLRLSCAASGFTFDDYAMHWVRQAPGKGLEWVSGISWNSGSIGYADSVKGRFTISRDNTKNSLYLQMNSLRAEDTGVYYCAREVTGDLDYWGQGTLVTVSS
VL: EIVMTQSPGTLSLSPGERATLSCRASQFLSSTYLAWYQQRPGQAPRLLIYSASNRATGVPDRFSGSGSGTDFTLKISRVEAEDVGVYYCMQATHWPYTFGQGTKLEIKR
notes: also called Clone GDF11 Inh-1
Take B3: the “EC50, proGDF11 activation assay at 50 nM proGDF11” value with human proGDF11 [6] worked out at 87.1 nM. Moreover, the binding result with human mature GDF11 is “no binding”. In addition, the results for the Kd in the experiment with human proGDF11 [1] and with murine proGDF11 [5] were 0.49 nM and 0.848 nM, respectively. In the experiment with human proGDF11 [2], the “Human proGDF11 % Inhibition” value was 91%. For the same molecule, the “Murine proGDF11 % inhibition” value with murine proGDF11 [3] was found to be 80%.

B4: GDF11 Inh-5 (antibody, V domains shown)
VH: EVQLVQSGAEVKKPGASVKVSCKASGYTFTGYYIYWVRQAPGQGLEWMGWIRPNSGDTNYAQKFQDRLTMTRDTSISTAYMELSRLRSDDTAVYYCAGNYDILTGYQAPLGYWGQGALVTVSS
VL: DIVLTQSPATLSVSPGERATLSCRASQRVISNYLAWYQQKPGQAPRLLIYGASSRATGIPDRFSGSGSGTDFTLSISRLEPEDFAVYYCQHYGPFGGGTKVEIKR
notes: also called Clone GDF11 Inh-5
In the case of B4, the “EC50 (inhibition of proGDF11 activation; CAGA luciferase reporter in 293T cells after overnight proteolysis)” value with human proGDF11 [7] was ~30.3 nM. Further, in the experiment with human proGDF11 [6], the “EC50, proGDF11 activation assay at 50 nM proGDF11” value came to 30.1 nM. Besides, in the experiment with human proActivin A, the binding result is “no binding (tested: 50 µg/mL)”. Besides, the Kd with human proGDF11 [1] is < 0.001 nM; with human latent GDF11, < 1 pM. Moreover, in the experiment with human proGDF11 [2], the “Human proGDF11 % Inhibition” value came to 96%. The “Murine proGDF11 % inhibition” value in the experiment with murine proGDF11 [3] came out at 90%.

B5: GDF11 Inh-6 (antibody, V domains shown)
VH: QVQLQESGPGLVKPSETLSLTCTVSGGSISSSSYYWGWVRQPPGKGLEWIGEIYHSGSTNYNPSLKSRVTISVDTSKNQFSLKLSSVTAADTAVYYCARVGTSWEYYFDYWGQGTLVTVSS
VL: DIQMTQSPASLSASVGDRVTITCRTSQHIINYLNWYQQRPGKAPNLLIYKASTLQSGVPSRFSGSGSGTHFTLTISSLQPEDFATYYCQQYQSYPITFGQGTRLEIKR
notes: also called Clone GDF11 Inh-6
For the molecule B5, the binding result (in [4]; with human proGDF8) was “no binding” in each case. Besides, binding with human proGDF11 [1] was characterised by a dissociation constant (Kd) of 0.75 nM. The “Human proGDF11 % Inhibition” value with human proGDF11 [2] was 77%. Further, the “Murine proGDF11 % inhibition” value in the experiment with murine proGDF11 [3] stood at 63%.
